Measurements: the supplement of paper PMC11875167

Test: observed amide hydrogen exchange rate constant kobs (stretched exponential fit, FD-normalized) (s^-1); higher = faster H/D exchange (less protection)
Conditions: pH 3 (pH read); temperature: 20 °C; D2O: 88%
In short: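 Jurkat tryptic peptides (LysC/trypsin, carbamidomethylated cysteines) were labeled in 88% D2O, pHread 3, 20 °C, quenched with 0.23% formic acid at 13 times from 18 to 93,600 s, in processing triplicates. MS1 uptake (Q-Exactive HF, HDExaminer, no back-exchange correction) was normalized to full-deuteration controls (24 h, 37 °C). Curves were fitted to a stretched single exponential with β = 0.8. The observed exchange rate constant kobs is the fitted rate.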

Substance | observed amide hydrogen exchange rate constant kobs
EWFLQAAK | 0.00111
FAAATGATPIAGR | 0.00118
FAAYFQQGDMESNGK | 0.00182
FAQPGSFEYEYAMR | 0.00134
FDLMYAK | 0.000933
FEDENFILK | 0.00131
FFEVILIDPFHK | 0.000722
FGYVDFESAEDLEK | 0.00214
FHGTVK | 0.00166
FHVEEEGK | 0.00347
FLILPDMLK | 0.000536
FLPLFDR | 0.00116
FLVYVANFDEK | 0.000821
FNVWDTAGQEK | 0.00146
FPGQLNADLRK | 0.00145
FSELTAEK | 0.00148
FSGWYDADLSPAGHEEAK | 0.00239
FSHEEIAMATVTALRR | 0.000978
FTQAGSEVSALLGR | 0.00109
FVADGIFK | 0.00103
FVSISDLLVPK | 0.000665
FYEAFSK | 0.00122
GADFLVTEVENGGSLGSK | 0.00147
GAEAANVTGPGGVPVQGSK | 0.00103
GALQNIIPASTGAAK | 0.000988
GAVDGGLSIPHSTK | 0.00225
GCITIIGGGDTATCCAK | 0.00119

Substance | observed amide hydrogen exchange rate constant kobs
GDEEGVPAVVIDMSGLR | 0.00109
GDEELDSLIK | 0.000999
GDGPVQGIINFEQK | 0.000693
GEATVSFDDPPSAK | 0.00157
GEENLMDAQVK | 0.00185
GEGQLGPAER | 0.0023
GEMMDLQHGSLFLR | 0.00161
GFGFILFK | 0.000667
GFGFVDFNSEEDAK | 0.00238
GFGFVLFK | 0.000656
GFGFVTYATVEEVDAAMNARPHK | 0.00098
GFSTWLK | 0.000875
GGGQIIPTAR | 0.000898
GGSDGYGSGR | 0.00404
GHYTEGAELVDSVLDVVRK | 0.00131
GIAYIEFK | 0.00091
GIGYLK | 0.00124
GILAADESTGSIAK | 0.00166
GIVDQSQQAYQEAFEISK | 0.000918
GLAPDLPEDLYHLIK | 0.00112
GLFIIDDK | 0.00107
GLSEDTTEETLK | 0.003
GLTPSQIGVILR | 0.00062
GLTSVINQK | 0.000815
GLVGEIIK | 0.000569
GNFGGSFAGSFGGAGGHAPGVAR | 0.00196
GNPTVEVDLFTSK | 0.000833

Substance | observed amide hydrogen exchange rate constant kobs
GNSIIMLEALERV | 0.00109
GPDGLTAFEATDNQAIK | 0.00114
GPSSVEDIK | 0.00156
GRGARGGKAEDK | 0.00275
GSYGDLGGPIITTQVTIPK | 0.000771
GTGIVSAPVPK | 0.00104
GTLDPVEK | 0.00116
GVNLPGAAVDLPAVSEK | 0.0011
GVVDSEDLPLNISR | 0.0013
GVVPLAGTNGETTTQGLDGLSER | 0.00156
GYDVIAQAQSGTGK | 0.00126
GYFEYIEENK | 0.00229
GYISPYFINTSK | 0.000598
GYSFTTTAER | 0.00184
HALIIYDDLSK | 0.00058
HAVSEGTK | 0.00263
HEHQVMLMR | 0.00145
HELLQPFNVLYEK | 0.00104
HFVALSTNTTK | 0.00117
HIADLAGNSEVILPVPAFNVINGGSHAGNK | 0.00138
HIYYITGETK | 0.00121
HLEINPDHPIVETLR | 0.00133
HLEINPDHSIIETLR | 0.00155
HLQLAIRNDEELNK | 0.00184
HQEGEIFDTEK | 0.0025
HQGVMVGMGQK | 0.00127
